# T1: RXFP1 receptor expressed by transient transfection in HEK293T cells (UniProt Q9HBX9 1-757, limits assumed)
# T1 sequence (looked up): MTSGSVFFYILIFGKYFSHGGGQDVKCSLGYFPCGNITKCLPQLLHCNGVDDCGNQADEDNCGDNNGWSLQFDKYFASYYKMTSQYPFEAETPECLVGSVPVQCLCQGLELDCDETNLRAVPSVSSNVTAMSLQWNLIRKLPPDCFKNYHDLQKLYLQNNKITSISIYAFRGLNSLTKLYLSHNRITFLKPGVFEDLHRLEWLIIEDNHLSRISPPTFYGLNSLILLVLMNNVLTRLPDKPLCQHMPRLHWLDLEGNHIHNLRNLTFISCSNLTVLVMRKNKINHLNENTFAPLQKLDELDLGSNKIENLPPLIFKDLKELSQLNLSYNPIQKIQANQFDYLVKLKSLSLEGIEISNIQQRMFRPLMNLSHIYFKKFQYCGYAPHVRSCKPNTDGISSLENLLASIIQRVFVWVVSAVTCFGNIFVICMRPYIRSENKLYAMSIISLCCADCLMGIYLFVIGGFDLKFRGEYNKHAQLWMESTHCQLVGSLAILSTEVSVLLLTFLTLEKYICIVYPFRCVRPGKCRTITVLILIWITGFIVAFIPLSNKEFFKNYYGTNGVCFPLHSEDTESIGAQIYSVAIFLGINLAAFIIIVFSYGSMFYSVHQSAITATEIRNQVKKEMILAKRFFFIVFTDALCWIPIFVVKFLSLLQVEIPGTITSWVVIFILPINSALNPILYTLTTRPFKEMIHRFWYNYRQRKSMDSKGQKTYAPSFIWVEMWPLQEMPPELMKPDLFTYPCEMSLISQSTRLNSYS
# B1: SE004, Protein C-tag and His-tag single-chain relaxin (ligand)
# chain: EDQVDPRLIDGKGSHHHHHHDSWMEEVIKLCGRELVRAQIAICGMSTWSDAASSHSHSSARQLYSALANKCCHVGCTKRSLARFC
# B2: SE401, Single-chain relaxin with the combined substitutions of SE201, 204-207, fused to the C-terminus of mouse serum albumin with an N-terminal 8X His-tag (other)
# chain: HHHHHHHHRGVFRREAHKSEIAHRYNDLGEQHFKGLVLIAFSQYLQKCSYDEHAKLVQEVTDFAKTCVADESAANCDKSLHTLFGDKLCAIPNLRENYGELADCCTKQEPERNECFLQHKDDNPSLPPFERPEAEAMCTSFKENPTTFMGHYLHEVARRHPYFYAPELLYYAEQYNEILTQCCAEADKESCLTPKLDGVKEKALVSSVRQRMKCSSMQKFGERAFKAWAVARLSQTFPNADFAEITKLATDLTKVNKECCHGDLLECADDRAELAKYMCENQATISSKLQTCCDKPLLKKAHCLSEVEHDTMPADLPAIAADFVEDQEVCKNYAEAKDVFLGTFLYEYSRRHPDYSVSLLLRLAKKYEATLEKCCAEANPPACYGTVLAEFQPLVEEPKNLVKTNCDLYEKLGEYGFQNAILVRYTQKAPQVSTPTLVEAARNLGRVGTKCCTLPEDQRLPCVEDYLSAILNRVCLLHEKTPVSEHVTKCCSGSLVERRPCFSALTVDETYVPKEFKAETFTFHSDICTLPEKEKQIKKQTALAELVKHKPKATAEQLKTVMDDFAQFLDTCCKAADKDTCFSTEGPNLVTRCKDALAGGSDSWKEEVIKLCGRELVRAQIAICGKSTASDAAGANANAGARQLYSALANKCCHVGCTKRSLARFC
# B3: SE001, His-tag single-chain relaxin (ligand)
# chain: HHHHHHDSWMEEVIKLCGRELVRAQIAICGMSTWSDAASSHSHSSARQLYSALANKCCHVGCTKRSLARFC
# B4: SE005, Truncated His-tag single-chain relaxin (ligand)
# chain: HHHHHHEEVIKLCGRELVRAQIAICGMSTWSDAASSHSHSSARQLYSALANKCCHVGCTKRSLARFC
# Molecular target: T1, RXFP1 receptor expressed by transient …
# Assay: cell-based or functional assay
EC50 [nM],Emax (Native two-chain relaxin = 100% Emax) [%],Binder
1.5,117,B1
52.6,121,B2
,118,B3
0.485,112,B4
